The target of the test is human C1q (R&D Systems) (human) (UniProt P02745). In words: C1q ELISA, absorbance at 450 nm.

Our source for the fold reduction of complement activity (C1q ELISA) against the glycosylated Fc fragment values is patent publication US20090053246A1.

UniProt P02745, sequence (P02745 23-245 limits assumed, chain 1 of 3): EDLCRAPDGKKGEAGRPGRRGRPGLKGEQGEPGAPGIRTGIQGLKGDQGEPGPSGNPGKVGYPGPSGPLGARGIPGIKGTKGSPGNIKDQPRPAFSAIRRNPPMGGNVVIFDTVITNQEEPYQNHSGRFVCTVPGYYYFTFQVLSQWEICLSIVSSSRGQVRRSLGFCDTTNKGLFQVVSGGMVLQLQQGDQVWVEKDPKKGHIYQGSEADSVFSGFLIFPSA
UniProt P02745, sequence (P02746 28-253 limits assumed, chain 2 of 3, further chain): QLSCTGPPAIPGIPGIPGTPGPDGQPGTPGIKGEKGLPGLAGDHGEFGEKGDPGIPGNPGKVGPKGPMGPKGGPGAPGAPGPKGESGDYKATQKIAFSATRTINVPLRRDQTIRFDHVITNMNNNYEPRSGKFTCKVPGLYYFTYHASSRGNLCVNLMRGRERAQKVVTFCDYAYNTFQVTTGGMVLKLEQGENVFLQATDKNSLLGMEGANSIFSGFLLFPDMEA
UniProt P02745, sequence (P02747 29-245 limits assumed, chain 3 of 3, further chain): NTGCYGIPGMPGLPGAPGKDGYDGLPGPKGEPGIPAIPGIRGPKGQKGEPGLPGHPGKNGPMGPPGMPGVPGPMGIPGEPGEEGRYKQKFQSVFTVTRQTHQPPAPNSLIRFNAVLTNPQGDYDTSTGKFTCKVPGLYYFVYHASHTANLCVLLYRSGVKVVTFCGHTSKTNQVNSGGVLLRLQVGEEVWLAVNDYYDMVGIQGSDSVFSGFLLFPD

In the case of “dCysG1Fc (recombinant aglycosylated IgG1 Fc derivative, twelve amino acid deletion at the amino terminus of the native hinge region) (from UniProt P01857 111-330)”, the fold reduction of complement activity (C1q ELISA) against the glycosylated Fc fragment was 2 times.
